Laboratory results as given in PMC3410491.

What was measured:
[1] = biological target: Chara myosin heavy chain (Chara corallina (Chara australis) (endogenous in internodal cells)); assay: SEC; partially purified Chara myosin on Superdex 200HR in 50 mM Tris-HCl pH 8.0, 2 mM MgCl2, 1 mM EGTA, 4 mM ATP, 1 mM DTT; peak fraction No. 20 concentrated and run on SDS-PAGE, stained with coomassie brilliant blue; molar ratios roughly estimated
[2] = biological target: Chara myosin heavy chain (Chara corallina (Chara australis) (endogenous in internodal cells))
[3] = biological target: Chara myosin heavy chain (Chara corallina (Chara australis) (endogenous in internodal cells)); remark: listed apart in the source

Question: How did the stoichiometry N (molar ratio to the heavy chain) [1] turn out when “20 kDa polypeptide of Chara myosin (natural protein)” was run?
Answer: 0.7

Question: With “18 kDa polypeptide of Chara myosin (natural protein)” as the substance, how does the stoichiometry N (molar ratio to the heavy chain) [1] read?
Answer: 2.5

Question: With “bovine calmodulin (from UniProt P62157 1-149) (natural protein)” as the substance, how does the sliding velocity of F-actin on Chara myosin in the in vitro motility assay; increase over the standard buffer on adding 0.1 mM Ca++ and 0.1 mg/ml calmodulin; reversible on washing out [2] read?
Answer: 35%

Question: And the sliding velocity of F-actin on Chara myosin in the in vitro motility assay; increase over the standard buffer on adding 0.1 mg/ml calmodulin [2]?
Answer: 24%

Question: And the actin activated ATPase of column purified Chara myosin; increase on adding both Ca++ and calmodulin [3]?
Answer: 91%

Question: And the actin activated ATPase of column purified Chara myosin; increase on adding calmodulin [3]?
Answer: 24%
